Source: the Human Domainome abundance scans (Beltran et al. 2025)
± gives the uncertainty stated by the source.

B1: RAS guanyl-releasing protein 1, residues 539 to 593; numbered along this chain, O95267 (parent)
chain: GFPHNFQETTYLKPTFCDNCAGFLWGVIKQGYRCKDCGMNCHKQCKDLVVFECKK

Variants of: B1
Experiment: abundance fitness (aPCA) (normalised: wild type 0, dead -1); higher = more abundant; growth selection in yeast, the domain comes from the species named
Conditions: Homo sapiens
Work on Q30N yielded an abundance fitness of -0.495 ± 0.15. In the case of Q30I, the abundance fitness is reported as -0.872 ± 0.24. In the case of Q30H, the abundance fitness is reported as -0.663 ± 0.21. For Q30P, the abundance fitness was -0.669 ± 0.18. Work on Q30F yielded an abundance fitness of -0.756 ± 0.21. Work on K35L yielded an abundance fitness of 0.021 ± 0.044. For K35G, the abundance fitness was -0.118 ± 0.088. R33P gave an abundance fitness of -0.919 ± 0.13. R33G gave an abundance fitness of -0.134 ± 0.1. C53N showed an abundance fitness of 0.13 ± 0.13. C53W showed an abundance fitness of -0.082 ± 0.074. In the case of C53Y, the abundance fitness is reported as -0.198 ± 0.16. In the case of K29V, the abundance fitness is reported as -0.289 ± 0.071. K29S showed an abundance fitness of -0.086 ± 0.072. For K29D, the abundance fitness was -0.618 ± 0.21. For K29E, the abundance fitness was -0.386 ± 0.096. Work on K29R yielded an abundance fitness of -0.103 ± 0.082. Work on A21Q yielded an abundance fitness of -0.311 ± 0.15. Variant A21P has an abundance fitness of -0.116 ± 0.078. In the case of A21W, the abundance fitness is reported as -0.222 ± 0.13. In the case of A21T, the abundance fitness is reported as 0.043 ± 0.11. Variant A21V has an abundance fitness of -0.071 ± 0.085. A21H showed an abundance fitness of -0.082 ± 0.13. Variant V50A has an abundance fitness of -0.064 ± 0.1. With V50R the abundance fitness was -0.11 ± 0.068. Work on V50Y yielded an abundance fitness of -0.231 ± 0.12. For V50D, the abundance fitness was -0.208 ± 0.13. For V50S, the abundance fitness was -0.03 ± 0.057. With V50P the abundance fitness was -0.157 ± 0.12. V50E showed an abundance fitness of 0.037 ± 0.061. V27S gave an abundance fitness of -0.423 ± 0.078. V27I showed an abundance fitness of -0.119 ± 0.1. In the case of V27D, the abundance fitness is reported as -0.657 ± 0.17. For V27G, the abundance fitness was -0.19 ± 0.046. For V27C, the abundance fitness was -0.192 ± 0.14. With V27F the abundance fitness was 0.027 ± 0.11. For V27W, the abundance fitness was -0.22 ± 0.12. For D18G, the abundance fitness was -0.294 ± 0.086. For D18N, the abundance fitness was -0.026 ± 0.096. D18L gave an abundance fitness of -0.013 ± 0.095. In the case of D18A, the abundance fitness is reported as -0.016 ± 0.088. D18T gave an abundance fitness of 0.205 ± 0.07. Work on F2H yielded an abundance fitness of -0.048 ± 0.11. Variant F2Y has an abundance fitness of -0.019 ± 0.066. For F2V, the abundance fitness was -0.282 ± 0.075. Work on L12C yielded an abundance fitness of -0.183 ± 0.11. With L12M the abundance fitness was 0.319 ± 0.12. For L12P, the abundance fitness was -0.149 ± 0.09. In the case of L12G, the abundance fitness is reported as -0.038 ± 0.08. For L12V, the abundance fitness was -0.39 ± 0.097. Work on L12E yielded an abundance fitness of -0.19 ± 0.097. Y32V showed an abundance fitness of -0.007 ± 0.056. With Y32W the abundance fitness was -0.068 ± 0.085. With Y32P the abundance fitness was -0.883 ± 0.2. Work on Y32M yielded an abundance fitness of -0.101 ± 0.13. With Y32R the abundance fitness was -0.393 ± 0.095. In the case of G1M, the abundance fitness is reported as 0.477 ± 0.14. G1W showed an abundance fitness of -0.46 ± 0.34. Work on C37D yielded an abundance fitness of -0.864 ± 0.17. W25N gave an abundance fitness of -0.377 ± 0.17. W25K gave an abundance fitness of -0.206 ± 0.074. In the case of W25T, the abundance fitness is reported as 0.157 ± 0.1. W25Q gave an abundance fitness of -0.128 ± 0.074. For T9Y, the abundance fitness was -0.013 ± 0.13. Work on T9C yielded an abundance fitness of -0.035 ± 0.12. Work on T9G yielded an abundance fitness of -0.273 ± 0.098. In the case of T9E, the abundance fitness is reported as -0.376 ± 0.12. Work on T9F yielded an abundance fitness of -0.216 ± 0.19. With T9S the abundance fitness was 0.028 ± 0.067. T9P gave an abundance fitness of -0.768 ± 0.22. Variant T9H has an abundance fitness of -0.021 ± 0.12. T9L gave an abundance fitness of -0.184 ± 0.076. Variant T9Q has an abundance fitness of -0.056 ± 0.062. For N40G, the abundance fitness was -0.08 ± 0.052. N40E showed an abundance fitness of -0.082 ± 0.061. With T15E the abundance fitness was -0.401 ± 0.062. T15H gave an abundance fitness of -0.185 ± 0.12. T15V gave an abundance fitness of -0.425 ± 0.063. With T15M the abundance fitness was -0.146 ± 0.13. Variant T15S has an abundance fitness of -0.181 ± 0.062. In the case of N5C, the abundance fitness is reported as -0.23 ± 0.079. For N5P, the abundance fitness was -0.403 ± 0.12. N5K gave an abundance fitness of -0.157 ± 0.11. Work on N5H yielded an abundance fitness of 0.001 ± 0.092. With N5S the abundance fitness was -0.066 ± 0.071. N5T gave an abundance fitness of -0.026 ± 0.085. With K13R the abundance fitness was -0.231 ± 0.086. For K13S, the abundance fitness was -0.116 ± 0.054. With K13Q the abundance fitness was -0.247 ± 0.33. Variant K13M has an abundance fitness of 0.04 ± 0.1. Q44A gave an abundance fitness of 0.011 ± 0.074. For Q44C, the abundance fitness was 0.011 ± 0.12. Work on Q44P yielded an abundance fitness of -0.119 ± 0.079. Q44N gave an abundance fitness of -0.238 ± 0.35. F6Q gave an abundance fitness of -0.309 ± 0.12. F6G gave an abundance fitness of -0.627 ± 0.093. F6K showed an abundance fitness of -0.647 ± 0.17. With F6E the abundance fitness was -0.551 ± 0.2. Variant F6P has an abundance fitness of -0.477 ± 0.097. F6I gave an abundance fitness of -0.269 ± 0.25. In the case of F6V, the abundance fitness is reported as -0.06 ± 0.044. F6W gave an abundance fitness of -0.667 ± 0.22. For F6H, the abundance fitness was -0.319 ± 0.091. Work on F6T yielded an abundance fitness of -0.436 ± 0.14. With L24V the abundance fitness was -0.241 ± 0.098. With L24I the abundance fitness was -0.049 ± 0.077. Variant L24P has an abundance fitness of -0.612 ± 0.2. For L24M, the abundance fitness was 0.248 ± 0.11. With L48E the abundance fitness was -0.061 ± 0.07. For L48P, the abundance fitness was -0.15 ± 0.17. In the case of L48A, the abundance fitness is reported as 0.023 ± 0.048. L48N showed an abundance fitness of -0.295 ± 0.15. Work on L48R yielded an abundance fitness of -0.136 ± 0.079. L48I showed an abundance fitness of -0.378 ± 0.12. With L48K the abundance fitness was 0.011 ± 0.052. In the case of L48T, the abundance fitness is reported as -0.047 ± 0.078. For H42R, the abundance fitness was -0.916 ± 0.11. H42Q showed an abundance fitness of -0.862 ± 0.33. In the case of H42V, the abundance fitness is reported as -1.09 ± 0.35. H42W showed an abundance fitness of -0.286 ± 0.1. In the case of H42K, the abundance fitness is reported as -0.849 ± 0.077. In the case of H42S, the abundance fitness is reported as -0.319 ± 0.046. Work on H42F yielded an abundance fitness of -0.981 ± 0.23. In the case of I28E, the abundance fitness is reported as -0.341 ± 0.062. Variant I28K has an abundance fitness of 0.065 ± 0.11. Work on I28W yielded an abundance fitness of -0.111 ± 0.092. P3L gave an abundance fitness of 0.007 ± 0.069. Variant P3H has an abundance fitness of 0.17 ± 0.058. Variant P3Y has an abundance fitness of 0.394 ± 0.25. P3N showed an abundance fitness of 0.227 ± 0.087. For P3T, the abundance fitness was 0.06 ± 0.087. With D47G the abundance fitness was -0.05 ± 0.058. D47Y gave an abundance fitness of -0.105 ± 0.14. D47H showed an abundance fitness of -0.32 ± 0.17. For D47M, the abundance fitness was -0.204 ± 0.11. Work on D47V yielded an abundance fitness of -0.113 ± 0.083. D47W showed an abundance fitness of -0.142 ± 0.082. In the case of D47A, the abundance fitness is reported as -0.056 ± 0.09. With D47K the abundance fitness was -0.148 ± 0.096. Work on E52C yielded an abundance fitness of -0.115 ± 0.081. With E52A the abundance fitness was -0.068 ± 0.11. Work on E52L yielded an abundance fitness of -0.168 ± 0.087. E52V showed an abundance fitness of -0.148 ± 0.055. Variant E52T has an abundance fitness of -0.037 ± 0.086. Variant E52W has an abundance fitness of -0.267 ± 0.11. For K43I, the abundance fitness was 0.232 ± 0.1. With V49I the abundance fitness was -0.319 ± 0.16. V49M showed an abundance fitness of -0.446 ± 0.2. With V49E the abundance fitness was -0.001 ± 0.12. For V49R, the abundance fitness was 0.094 ± 0.1. For C20L, the abundance fitness was -0.974 ± 0.21. In the case of C20Q, the abundance fitness is reported as -1.01 ± 0.21. C20V showed an abundance fitness of -1.13 ± 0.19. C20S showed an abundance fitness of -1.24 ± 0.4. In the case of C20W, the abundance fitness is reported as -0.827 ± 0.45. N19A showed an abundance fitness of 0.065 ± 0.084. For N19M, the abundance fitness was 0.135 ± 0.11. Work on N19W yielded an abundance fitness of 0.082 ± 0.057. With N19F the abundance fitness was 0.068 ± 0.094. N19V showed an abundance fitness of -0.02 ± 0.062. Variant C45W has an abundance fitness of -0.772 ± 0.19. For C45L, the abundance fitness was -0.976 ± 0.13. With C45E the abundance fitness was 0.068 ± 0.074. With C45I the abundance fitness was -0.554 ± 0.21. Variant C45G has an abundance fitness of -0.347 ± 0.063. C45K gave an abundance fitness of -0.643 ± 0.25. For C45V, the abundance fitness was -0.621 ± 0.068.
